Reference: patent US10323078B2, “Isolated peptides and fragments thereof from fibrinogen for use as drugs, particularly in skin inflammatory diseases” (Universite Paris Descartes, priority 2015, dated 2019)

What was measured:
P. acnes RON strain = assay: Adhesion assay, biotinylated P. acnes binding to fibroblasts (HDF); format: cell-based, Propionibacterium acnes; settings: bacteria pretreated 0.87 to 7 μM, 1 h at 37° C.
Description: The bacterial suspension was adjusted at 600 nm to the desired concentration, pretreated with peptides Fg1 and Fg2 at the final concentration ranging from 0.87 to 7 μM for 1 h at 37° C. and deposited on the previously saturated cells with a solution of PBS SVF 2% for 2 h. After incubation for 1 h at 37° C., unbound bacteria are removed by 3 washes with PBS and fixed bacteria are detected by a streptavidin-peroxidase solution of 0.5 μg/ml for 30 min.
Whole P. acnes bacteria are labelled by biotinylation, pre-treated or not with the peptides and contacted with the various cell lines. After removal of the unfixed bacteria, the adhesion activity was measured spectrophotometrically by using the streptavidin-peroxidase conjugate and a chromogenic substrate.
The ability of P. acnes strains 6919, RON and PIE was tested at 3 concentrations to adhere to various cells lines. It has been shown that the strains of P. acnes tested bound to the three kind of cell lines tested (keratinocytes, monocytes and fibroblast) with a maximum adhesion strength found for keratinocytes (FIG. 11). Knowing that P. acnes is able to recognize fibrinogen, it was used human and bovine whole fibrinogen to compete the interaction between the bacteria and the target cell. […] Then, the ability Fg1 to inhibit the adhesion of bacteria and RON PIE was evaluated on the 3 main types cell. […]

MRC5 cells = assay: TNF-α production by P. acnes-stimulated MRC5 (ELISA); format: cell-based, human; settings: 0.87 to 7 μM
Description: (§1) For experiences of stimulation with P. acnes, cells were incubated with the P. acnes suspension adjusted at the appropriate concentration, pre-treated for 1 h at 37° C. or not with fibrinogen recombinant peptides Fg1 and Fg2 at the concentrations 0.87, 1.75, 3.5 or 7 μM for the desired period of time at 37° C. in 5% CO2.
(§2) Human IL-1ß, IL-8, IL-12, hBD-2, and TNF-α protein concentration was measured in the supernatants of stimulated cells using various ELISA Set kits (Ready-Set-Go kit from eBioscience for acne experiments, and for psoriasis experiments the Duo set IL-8 kit from R&D Systems and the BD-2 Human Development (hBD-2) from Peprotech) according to the manufacturer's instructions. We used serial dilutions of recombinant human IL-1ß, IL-8, IL-12 and TNF-α for standard curve. The optical density was determined at 450 nm at a wavelength correction of 540 nm.
(§3) To assess the efficacy of Fg1 recombinant peptide, the production of O2^∘− and H2O2 by HaCaT cells NHDK, THP-1, MRC5 and HDF stimulated by pretreated P. acnes strains 6919, RON and PIE was measured. The amount of ROS produced was compared to that produced by the stimulated cells with untreated bacteria. Production baseline was obtained by measuring ROS on unstimulated cells. The production of IL-1ß, IL-8, IL-12 and TNF-α was also measured in all conditions cited above. The measurement of the production of ROS is performed by spectrofluorimetry in the presence of specific fluorochromes directly on the monolayer cell. Measurement of cytokine production was performed in parallel on the cell culture supernatant.
(§4) Two sets of experiments were implemented: 1) The cells were stimulated (18 h at 37° C.) by P. acnes strains previously pretreated with Fg1 and Fg2 peptides at the final concentrations ranging from 0.87 to 7 μM for 1 h at 37° C.; and 2) The cells were pretreated first with Fg1 and Fg2 peptides at the final concentrations ranging from 0.87 to 7 μM for 24 h at 37° C. and stimulated (18 h at 37° C.) by P. acnes strains.

HDF cells = assay: TNF-α production by P. acnes-stimulated HDF (ELISA); format: cell-based, human; settings: 0.87 to 7 μM
Description: as §1, §2, §3, §4

[1] = system: HaCaT, NHDK, THP-1, MRC5 and HDF; assay: O2°− production by cells stimulated with P. acnes, overall statement for the five cell lines; format: cell-based, human; settings: pretreatment of P. acnes strains; five cell lines and three strains tested
Description: as §1
All cells lines (5·10^4 to 10^5 cells/well) were seeded in 96-well plates (Corning Costar, Brumath, France) and treated as previously described. After stimulation, cells were washed three times in PBS and incubated with 100 μl per wells of 5 μM DHE (for determination of O2^●−) or 5 μM H2-DCFDA (for determination of H2O2) for 30 min as described previously and fluorescence intensity was recorded every hour over a period of 5 h. Fluorescence excitation/emission maxima were for DHE: 480/610 nm and for H2-DCFDA: 507/525 nm. At the end of the experiment, the number of adherent cells was evaluated by the crystal violet assay as described below. […] Levels of ROS were calculated in each sample as follows: reactive oxygen species rate (arbitrary units/min/10^6 cells)=(fluorescence intensity [arbitrary units] at T5h—fluorescence intensity [arbitrary units] at To/300 minutes/number of adherent cells as measured by the crystal violet assay, and were expressed as arbitrary unit (A.U.). […]

NHDK cells = assay: IL-8 production by keratinocytes stimulated by peptidoglycanne (PGN); format: cell-based, human; settings: NHDK pre-treated 24 h with 1.75 to 7 μM, then PGN 10 μg/ml
Description: FIG. 19: Dose-dependent inhibition of IL-8 production by keratinocyte pre-treated by small Fg1-generated peptides and stimulated by peptidoglycanne (PGN). NHDK cell were incubated for 24 h with recombinant peptide Fg1 (light gray bar) and Fg2 (dark gray bar) at concentrations ranging from 1.75 to 7 μM. Measurement of IL-8 production was realized by ELISA as described in Materials and Methods. Controls experiments were done with unstimulated NHDK cell (white bar) and HDF stimulated with PGN at 10 μg/ml (black bar). Data are means±S.D. of three separate experiments. Statistical significance is indicated by * (P<0.05), ** (P<0.01), *** (P<0.001), and **** (P<0.0001), respectively. […]
Human IL-1ß, IL-8, IL-12, hBD-2, and TNF-α protein concentration was measured in the supernatants of stimulated cells using various ELISA Set kits (Ready-Set-Go kit from eBioscience for acne experiments, and for psoriasis experiments the Duo set IL-8 kit from R&D Systems and the BD-2 Human Development (hBD-2) from Peprotech) according to the manufacturer's instructions. […] The optical density was determined at 450 nm at a wavelength correction of 540 nm.
The production of IL-8 was also measured NHDK cells stimulated by LTA, LPS and PGN, in presence or not of Fg1 or Fg2. […]

[2] = P. acnes 6919, set I, bacteria first pretreated
[3] = P. acnes 6919, set II, cells first pretreated
[4] = P. acnes PIE, set I, bacteria first pretreated
[5] = P. acnes PIE, set II, cells first pretreated
[6] = P. acnes RON, set I, bacteria first pretreated
[7] = P. acnes RON, set II, cells first pretreated

B1: MKRMVSWSFHKLKTMKHLLLLLLCVFLVKSQGVNDNEEGFFSARGHRPLDKKREEAPSLRPAPPPISGGGYRARPAKAAATQKKVERKAPDAGGCLHADPDLGVLC (protein)
chain: MKRMVSWSFHKLKTMKHLLLLLLCVFLVKSQGVNDNEEGFFSARGHRPLDKKREEAPSLRPAPPPISGGGRARPAKAAATQKKVERKAPDAGGCLHADPDLGVLCMKRMVSWSFHKLKTMKHLLLLLLCVFLVKSQGVNDNEEGFFSARGHRPLDKKREEAPSLRPAPPPISGGGYRARPAKAAATQKKVERKAPDAGGCLHADPDLGVLC
modifications: GST fusion; fragment Fg1
notes: fragment of Bß chain of human fibrinogen having 106 amino acids; recombinant GST-fused peptide expressed in E. coli
Inhibition of adhesion of P. acnes RON strain (P. acnes RON strain): inhibits the adhesion of RON strain in a dose-dependent manner
Inhibition of Interleukine TNF alpha (TNF-α) production (MRC5 cells; [2]): pos
Inhibition of Interleukine TNF alpha (TNF-α) production (MRC5 cells; [3]): pos
Inhibition of Interleukine TNF alpha (TNF-α) production (MRC5 cells; [4]): pos
Inhibition of Interleukine TNF alpha (TNF-α) production (MRC5 cells; [5]): pos
Inhibition of Interleukine TNF alpha (TNF-α) production (MRC5 cells; [6]): pos
Inhibition of Interleukine TNF alpha (TNF-α) production (MRC5 cells; [7]): pos
Inhibition of Interleukine TNF alpha (TNF-α) production (HDF cells; [2]): pos
Inhibition of Interleukine TNF alpha (TNF-α) production (HDF cells; [3]): pos
Inhibition of Interleukine TNF alpha (TNF-α) production (HDF cells; [4]): pos
Inhibition of Interleukine TNF alpha (TNF-α) production (HDF cells; [5]): pos
Inhibition of Interleukine TNF alpha (TNF-α) production (HDF cells; [6]): pos
Inhibition of Interleukine TNF alpha (TNF-α) production (HDF cells; [7]): pos
Inhibition of O2°− production [1]: in a dose-dependent manner
Decrease of IL-8 production by PGN-stimulated cells (NHDK cells): significantly decreases production of IL-8
